Reference: patent US10941182 (Amgen, dated 2021)
Starred links: 1 amine or outer side, 2 acyl side, 3 side chain; linkers in the order of their positions; H or OH if unused. Non-standard residues stand in square brackets, D forms with d. Primed or numbered codes have the meaning given here. *: point of attachment. NPipG = 2-(piperidin-4-ylamino)acetic acid, O=C(CN(C1CCN([*:3])CC1)[*:1])[*:2]; AC4Abu = α-carboxy-4-aminobutyric acid, O=C(C(CCN[*:1])C(=O)[*:3])[*:2]; Bip = N[C@@H](Cc1ccc(-c2ccccc2)cc1)C(=O)O; dBip = N[C@H](Cc1ccc(-c2ccccc2)cc1)C(=O)O; Oic = O=C(O)[C@@H]1C[C@@H]2CCCC[C@@H]2N1; Phe(4-Cl) = N[C@@H](Cc1ccc(Cl)cc1)C(=O)O; Phe(4-F) = N[C@@H](Cc1ccc(F)cc1)C(=O)O; Phe(4-I) = N[C@@H](Cc1ccc(I)cc1)C(=O)O; γGlu = O=C(O)[C@H](CCC(=O)[*:2])N[*:1]; d(β3hF) = N[C@@H](CC(=O)O)Cc1ccccc1; NMeR = CN[C@@H](CCCNC(=N)N)C(=O)O; Palmitoyl = CCCCCCCCCCCCCCCC(=O)*; hArg = N=C(N)NCCCC[C@H](N)C(=O)O; 3Pal = N[C@@H](Cc1cccnc1)C(=O)O; Cha = N[C@@H](CC1CCCCC1)C(=O)O; NMeL = CN[C@@H](CC(C)C)C(=O)O; αMeL = CC(C)C[C@](C)(N)C(=O)O; αMeOrn = C[C@](N)(CCCN)C(=O)O; β3hP = O=C(O)C[C@@H]1CCCN1; αMeS = C[C@](N)(CO)C(=O)O; Nle = CCCC[C@H](N)C(=O)O; Dab = NCC[C@H](N)C(=O)O; Pip′ = not defined here; Dap = NC[C@H](N)C(=O)O; Hexanoyl = CCCCCC(=O)*; AEEA = NCCOCCOCC(=O)O; Aib = CC(C)(N)C(=O)O; Ahx = NCCCCCC(=O)O; BLeu = β-leucine

T1: human APJ receptor (human, UniProt P35414 1-380)
T1 sequence (looked up): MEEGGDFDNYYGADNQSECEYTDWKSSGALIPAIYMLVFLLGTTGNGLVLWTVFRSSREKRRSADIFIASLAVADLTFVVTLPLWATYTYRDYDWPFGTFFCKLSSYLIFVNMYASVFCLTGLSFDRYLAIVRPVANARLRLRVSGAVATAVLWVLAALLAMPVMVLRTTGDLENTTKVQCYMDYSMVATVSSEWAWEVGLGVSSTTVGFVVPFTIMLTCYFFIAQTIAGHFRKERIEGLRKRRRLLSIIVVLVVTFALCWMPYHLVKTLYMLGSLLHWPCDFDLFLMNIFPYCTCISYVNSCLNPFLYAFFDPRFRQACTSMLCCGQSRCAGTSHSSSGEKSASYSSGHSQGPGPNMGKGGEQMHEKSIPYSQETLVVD

T2: rat APJ receptor (rat, UniProt Q9JHG3 1-377)
T2 sequence (looked up): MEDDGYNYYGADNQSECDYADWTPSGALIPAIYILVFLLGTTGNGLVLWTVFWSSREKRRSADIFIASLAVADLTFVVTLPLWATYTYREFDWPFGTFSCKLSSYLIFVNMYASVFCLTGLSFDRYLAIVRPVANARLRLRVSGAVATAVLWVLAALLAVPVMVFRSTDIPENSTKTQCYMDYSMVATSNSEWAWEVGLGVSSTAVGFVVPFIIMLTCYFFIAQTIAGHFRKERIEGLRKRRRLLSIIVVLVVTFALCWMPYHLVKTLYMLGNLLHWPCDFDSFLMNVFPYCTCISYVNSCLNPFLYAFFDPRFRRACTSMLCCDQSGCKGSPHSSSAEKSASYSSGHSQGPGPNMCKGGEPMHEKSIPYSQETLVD


Tests used:
human APJ receptor = molecular target: T1, human APJ receptor; assay: cell-based or functional assay
rat APJ receptor = molecular target: T2, rat APJ receptor; assay: cell-based or functional assay

Row | Binder | EC50 Human APJ Receptor (human APJ receptor) [nM] | EC50 Rat APJ Receptor (rat APJ receptor) [nM]
1 | Palmitoyl-[γGlu][AEEA][AEEA][dQ][hArg]P[dR][Cha]SHKG[Oic][Nle]P[d(β3hF)]-OH (SMILES CCCCCCCCCCCCCCCC(=O)N[C@@H](CCC(=O)NCCOCCOCC(=O)NCCOCCOCC(=O)N[C@H](CCC(N)=O)C(=O)N[C@@H](CCCCNC(=N)N)C(=O)N1CCC[C@H]1C(=O)N[C@H](CCCNC(=N)N)C(=O)N[C@@H](CC1CCCCC1)C(=O)N[C@@H](CO)C(=O)N[C@@H](Cc1c[nH]cn1)C(=O)N[C@@H](CCCCN)C(=O)NCC(=O)N1[C@H](C(=O)N[C@@H](CCCC)C(=O)N2CCC[C@H]2C(=O)N[C@@H](CC(=O)O)Cc2ccccc2)C[C@@H]2CCCC[C@@H]21)C(=O)O) [SEQ ID NO: 614] | 1.25 | 10.3
2 | Hexanoyl-[Ahx][AC4Abu][AEEA][AEEA][hArg][dR]Q[hArg]P[dR][NMeL]SHKG[Oic][Phe(4-I)]P[dBip]-OH (SMILES CCCCCC(=O)NCCCCCC(=O)NCCC(C(=O)O)C(=O)NCCOCCOCC(=O)NCCOCCOCC(=O)N[C@@H](CCCCNC(=N)N)C(=O)N[C@H](CCCNC(=N)N)C(=O)N[C@@H](CCC(N)=O)C(=O)N[C@@H](CCCCNC(=N)N)C(=O)N1CCC[C@H]1C(=O)N[C@H](CCCNC(=N)N)C(=O)N(C)[C@@H](CC(C)C)C(=O)N[C@@H](CO)C(=O)N[C@@H](Cc1c[nH]cn1)C(=O)N[C@@H](CCCCN)C(=O)NCC(=O)N1[C@H](C(=O)N[C@@H](Cc2ccc(I)cc2)C(=O)N2CCC[C@H]2C(=O)N[C@H](Cc2ccc(-c3ccccc3)cc2)C(=O)O)C[C@@H]2CCCC[C@@H]21) [SEQ ID NO: 566] | 1.13 | 1.65
3 | XXXQRPRLSHKGPMPF ({ODDA}[AC4Abu][Aeea][Aeea]QRPRLSHKGPMPF{COOH}) [SEQ ID NO: 290] | 40.1 | 173
4 | Palmitoyl-[γGlu][AEEA][AEEA][dQ]RP[NMeR][αMeL][αMeS]HKG[Oic][Nle][β3hP][Phe(4-Cl)]-OH (SMILES CCCCCCCCCCCCCCCC(=O)N[C@@H](CCC(=O)NCCOCCOCC(=O)NCCOCCOCC(=O)N[C@H](CCC(N)=O)C(=O)N[C@@H](CCCNC(=N)N)C(=O)N1CCC[C@H]1C(=O)N(C)[C@@H](CCCNC(=N)N)C(=O)N[C@@](C)(CC(C)C)C(=O)N[C@@](C)(CO)C(=O)N[C@@H](Cc1c[nH]cn1)C(=O)N[C@@H](CCCCN)C(=O)NCC(=O)N1[C@H](C(=O)N[C@@H](CCCC)C(=O)N2CCC[C@H]2CC(=O)N[C@@H](Cc2ccc(Cl)cc2)C(=O)O)C[C@@H]2CCCC[C@@H]21)C(=O)O) [SEQ ID NO: 627] | 0.244 | 0.641
5 | XXXQRPRLSHKGPXPF ({Oc}[AC4Abu][Aeea][Aeea]QRP[NMeArg]LSHKGP[Nle]P[4-Cl-F]{COOH}) [SEQ ID NO: 493] | 0.12 | 0.647
6 | XXXQRPRLSHKGPXPF ({HexDDA}[AC4Abu][Aeea][Aeea]QRP[NMeArg]LSHKGP[Nle]P[4-Cl-F]{COOH}) [SEQ ID NO: 512] | 0.658 | 4.59

Now from value to binder:

Row | EC50 Human APJ Receptor (human APJ receptor) [nM] | EC50 Rat APJ Receptor (rat APJ receptor) [nM] | Binder
7 | 1.62 | 6.64 | Palmitoyl-[γGlu][AEEA][AEEA][dQ]RP[NMeR][αMeL]SH[αMeOrn]G[Oic][Nle][β3hP][Phe(4-Cl)]-OH (SMILES CCCCCCCCCCCCCCCC(=O)N[C@@H](CCC(=O)NCCOCCOCC(=O)NCCOCCOCC(=O)N[C@H](CCC(N)=O)C(=O)N[C@@H](CCCNC(=N)N)C(=O)N1CCC[C@H]1C(=O)N(C)[C@@H](CCCNC(=N)N)C(=O)N[C@@](C)(CC(C)C)C(=O)N[C@@H](CO)C(=O)N[C@@H](Cc1c[nH]cn1)C(=O)N[C@@](C)(CCCN)C(=O)NCC(=O)N1[C@H](C(=O)N[C@@H](CCCC)C(=O)N2CCC[C@H]2CC(=O)N[C@@H](Cc2ccc(Cl)cc2)C(=O)O)C[C@@H]2CCCC[C@@H]21)C(=O)O) [SEQ ID NO: 635]
8 | 0.309 | 0.773 | Palmitoyl-[γGlu][AEEA][AEEA][dQ]RP[NMeR][αMeL][BLeu]HKG[Oic][Nle][β3hP][Phe(4-Cl)]-OH [SEQ ID NO: 628]
9 | 0.27 | 0.994 | Palmitoyl-[AC4Abu][AEEA][AEEA][dQ][NPipG]P[NMeR][Cha]SHKG[Pip′][Nle][Aib][Phe(4-Cl)]-OH [SEQ ID NO: 646]
10 | 4.05 | 14.2 | Palmitoyl-[γGlu][AEEA][AEEA][dQ]RP[NMeR][αMeL]SH[Phe(4-F)]G[Oic][Nle][β3hP][Phe(4-Cl)]-OH [SEQ ID NO: 637]
11 | 2.45 | 5.3 | Palmitoyl-[γGlu][AEEA][AEEA][dQ]RP[NMeR][αMeL]S[Bip]KG[Oic][Nle][β3hP][Phe(4-Cl)]-OH (SMILES CCCCCCCCCCCCCCCC(=O)N[C@@H](CCC(=O)NCCOCCOCC(=O)NCCOCCOCC(=O)N[C@H](CCC(N)=O)C(=O)N[C@@H](CCCNC(=N)N)C(=O)N1CCC[C@H]1C(=O)N(C)[C@@H](CCCNC(=N)N)C(=O)N[C@@](C)(CC(C)C)C(=O)N[C@@H](CO)C(=O)N[C@@H](Cc1ccc(-c2ccccc2)cc1)C(=O)N[C@@H](CCCCN)C(=O)NCC(=O)N1[C@H](C(=O)N[C@@H](CCCC)C(=O)N2CCC[C@H]2CC(=O)N[C@@H](Cc2ccc(Cl)cc2)C(=O)O)C[C@@H]2CCCC[C@@H]21)C(=O)O) [SEQ ID NO: 629]
12 | 3.2 | 9.32 | Palmitoyl-[γGlu][AEEA][AEEA][dQ]RP[NMeR][αMeL]SH[Dab]G[Oic][Nle][β3hP][Phe(4-Cl)]-OH [SEQ ID NO: 638]
13 | 1.59 | 3.65 | Palmitoyl-[γGlu][AEEA][AEEA][dQ]RP[NMeR][αMeL]SH[3Pal]G[Oic][Nle][β3hP][Phe(4-Cl)]-OH (SMILES CCCCCCCCCCCCCCCC(=O)N[C@@H](CCC(=O)NCCOCCOCC(=O)NCCOCCOCC(=O)N[C@H](CCC(N)=O)C(=O)N[C@@H](CCCNC(=N)N)C(=O)N1CCC[C@H]1C(=O)N(C)[C@@H](CCCNC(=N)N)C(=O)N[C@@](C)(CC(C)C)C(=O)N[C@@H](CO)C(=O)N[C@@H](Cc1c[nH]cn1)C(=O)N[C@@H](Cc1cccnc1)C(=O)NCC(=O)N1[C@H](C(=O)N[C@@H](CCCC)C(=O)N2CCC[C@H]2CC(=O)N[C@@H](Cc2ccc(Cl)cc2)C(=O)O)C[C@@H]2CCCC[C@@H]21)C(=O)O) [SEQ ID NO: 636]
14 | 3.28 | 15.4 | Palmitoyl-[γGlu][AEEA][AEEA][dQ]RP[NMeR][αMeL]SH[Dap]G[Oic][Nle][β3hP][Phe(4-Cl)]-OH [SEQ ID NO: 639]
